Two proteins from patent US20030100510A1 (KANSAS UNIVERSITY MEDICAL CENTER, published 2003) can be followed below.

This data set deals with the molecule itself. In words: crystal structure of the NC1 hexamer, 2.0 Å. The procedure: The heavy atom soak screens were carried out at beamlines 1-5 and 9-2 of Stanford Syncrhortron Radiation Laboratory (SSRL) and beamline X8C of National Synchrotron Light Source (NSLS) at Brookhaven National Laboratory. The Br-MAD data sets used in this study were collected at SSRL and processed using DENZO and […] programs of HKL2000 suite (39). The Br⁻ sites were located using SOLVE program (40) and 37 highest peaks (>6σ) were used for phasing the reflections at 2.2 Å resolution. The resulting phases were improved by solvent flattening using RESOLVE (41) and the electron density map was calculated using FFT program of CCP4 suite (42). Polypeptides of two α1 chains and one α2 chain (chains A-C) were traced using the TOM FRODO graphics program (43). The complete asymmetric unit was generated using non-crystallographic symmetry (“NCS”) relations obtained from Br⁻ sites—first the second trimer (chains D-F) was generated to complete one hexamer and then the second hexamer (chains G-L) was generated from the first hexamer. […] The structure was analyzed using SETOR(45), GRASP(46), and SURFNET(47) graphics software packages and various utility programs in CCP4 suite. The hexamer interface was analyzed using HBPLUS(48) and protein-protein interaction web server (http:/www.biochem.uc1.ac.uk/bsm/PP/server/). […]

B1: type IV collagen α1 chain NC1 domain (bovine lens basement membrane) (other, UniProt Q7SIB2 1441-1669, looked up)
chain: SVDHGFLVTRHSQTTDDPQCPPGTKILYHGYSLLYVQGNERAHGQDLGTAGSCLRKFSTMPFLFCNINNVCNFASRNDYSYWLSTPEPMPMSMAPITGENIRPFISRCAVCEAPAMVMAVHSQTIQIPQCPTGWSSLWIGYSFVMHTSAGAEGSGQALASPGSCLEEFRSAPFIECHGRGTCNYYANAYSFWLATIERSEMFKKPTPSTLKAGELRTHVSRCQVCMRRT
notes: domain: NC1; 5-6 N-terminal and 2 C-terminal residues are disordered in the map; also called α1 NC1; α1(IV) NC1
As to B1, the binding result is reported as “binds”.

B2: type IV collagen (α1)2.α2 NC1 trimer (bovine lens basement membrane) (other)
chain 1: SVDHGFLVTRHSQTTDDPQCPPGTKILYHGYSLLYVQGNERAHGQDLGTAGSCLRKFSTMPFLFCNINNVCNFASRNDYSYWLSTPEPMPMSMAPITGENIRPFISRCAVCEAPAMVMAVHSQTIQIPQCPTGWSSLWIGYSFVMHTSAGAEGSGQALASPGSCLEEFRSAPFIECHGRGTCNYYANAYSFWLATIERSEMFKKPTPSTLKAGELRTHVSRCQVCMRRT
chain 2: ISIGYLLVKHSQTDQEPMCPVGMNKLWSGYSLLYFEGQEKAHNQDLGLAGSCLARFSTMPFLYCNPGDVCYYASRNDKSYWLSTTAPLPMMPVAEEDIRPYISRCSVCEAPAVAIAVHSQDVSIPHCPAGWRSLWIGYSFLMHTAAGDEGGGQSLVSPGSCLEDFRATPFIECNGARGTCHYYANKYSFWLTTIPEQSFQGTPSADTLKAGLIRTHISRCQVCMKNL
notes: domain: NC1; Two such trimers make the [(α1)2.α2]2 NC1 hexamer that was crystallized. m3 is used for facts told of the trimer-trimer (hexamer) interface as a whole; also called protomer NC1 trimer; half of the [(α1)2.α2]2 NC1 hexamer
B2: the binding result is reported as “binds”.
